Source: patent US20220017630A1 (JIANGSU SIMCERE PHARMACEUTICAL, published 2022)
Changes are numbered by the printed parent chain.

T1: cynomolgus TNFR2 (Sino 90102-C08H) (cynomolgus, UniProt A0A2K5VET2 132-366)
T1 construct: also called CynoTNFR2 (His tag)
T1 sequence: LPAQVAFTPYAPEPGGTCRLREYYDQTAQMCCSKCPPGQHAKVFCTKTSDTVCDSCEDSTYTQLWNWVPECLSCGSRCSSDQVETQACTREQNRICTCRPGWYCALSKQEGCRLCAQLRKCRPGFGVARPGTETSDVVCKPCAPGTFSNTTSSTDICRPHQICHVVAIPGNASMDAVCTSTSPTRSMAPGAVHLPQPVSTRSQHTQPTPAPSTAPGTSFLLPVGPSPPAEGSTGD

T2: human TNFR2 on the cell surface (CHO-TNFR2 cells; human Treg cells) (human, UniProt P20333 23-461)
T2 construct: whole, on cells; The assay field of each row says which cells; also called TNFR2-CHO cell; TNFR2 on Treg cells
T2 sequence (looked up): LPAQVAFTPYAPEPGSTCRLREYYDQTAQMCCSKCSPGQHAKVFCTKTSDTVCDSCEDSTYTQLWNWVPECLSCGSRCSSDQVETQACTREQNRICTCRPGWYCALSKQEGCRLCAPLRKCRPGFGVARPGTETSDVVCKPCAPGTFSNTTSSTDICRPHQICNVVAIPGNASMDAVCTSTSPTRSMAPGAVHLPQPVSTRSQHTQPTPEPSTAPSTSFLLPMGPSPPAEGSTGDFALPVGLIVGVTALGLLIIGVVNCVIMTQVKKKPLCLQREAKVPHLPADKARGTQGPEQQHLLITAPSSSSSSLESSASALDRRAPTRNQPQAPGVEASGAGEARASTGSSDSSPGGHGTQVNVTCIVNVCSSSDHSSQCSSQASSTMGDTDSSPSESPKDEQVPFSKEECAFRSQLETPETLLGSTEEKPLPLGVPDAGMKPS

T3: human TNFR2 (Novoprotein, Catalog No. C830) (human, UniProt P20333 23-257, limits assumed)
T3 construct: construct not described; also called TNFR2 protein
T3 sequence (looked up): T1 sequence with G16S, P36S, Q117P, H164N, A210E, G216S, V223M

T4: Human TNFR2 recombinant protein (Sino 10417-H08H) (human, UniProt P20333 23-257)
T4 construct: also called hTNFR2 (His tag)
T4 sequence (looked up): T1 sequence with G16S, P36S, Q117P, H164N, A210E, G216S, V223M

B1: TNFR2 antibody #125 (antibody, V domains shown)
VH: EVQLQESGGGLVQPGGSLNLSCAASGFAFSIYDLSWVRQTPEKRLEWVAYINNGGISTYYSDTVKGRFTISRDNAKNTLYLQMSSLKSEDTAMYYCVRGPFYGSANYFDYWGQGTTVTVSS
VL: DIQMTQSPASLSLSVGETVTITCRASENIYSNLAWYQQKQGKSPQLLVYDATKLAEGVPSRFSGSESGTQYSLKINSLQSEDFGTYYCQHFWVTPWTFGGGTKLEIK
B2: TNFR2 antibody #001 (antibody, V domains shown)
VH: B1 VH with I31T
VL: B1 VL with D1E, Q3V, A25T, N28S, A34P
notes: also called antibody #1
B3: TNFR2 antibody #088 (antibody, V domains shown)
VH: B1 VH with I31T, E42G, S71T
VL: B1 VL with Q3L, S14F
B4: TNFR2 antibody #309 (antibody, V domains shown)
VH: EVQLQESGAELVKPGASVKLSCKASGYTFTSYWIHWVKLRPGQGFEWIGEINPNNGGTDYNEKFKRKATLTVDKSSSTAYMELSSLTSEDSAIYYCTIDSMITTTWFAYWGQGTTVTVSS
VL: EIVMTQSQKLMSTVVGDRVSVTCKASQNVGTNVAWFQQKPGQSPKALINSASYRYSGVPDRFTGSGSGTDFTLTISSVQSEDLAEYFCQQYNSYPFTFGSGTKLEIK
B5: TNFR2 antibody #352 (antibody, V domains shown)
VH: EVQLQESGPGLVAPSQSLSITCTVSGFSLTSYGVHWVRQPPGKGLEWLVVIWSDGGTTYNSALKSRLSISKDNSKSQVFLKMNSLQTDDTAMYYCARHDDDGYYAMDYWGQGTTVTVSS
VL: DIVLTQSPSLMSASPGEKVTMTCSASSSVGYMYWYQQKPRSSPKPWIYLTSNLASGVPARFSGSGSGTSYSLTISSMEVEDAATYYCQQWSSDPFTFGSGTKLEIK
B6: TNFR2 antibody #395 (antibody, V domains shown)
VH: EVQLQESGPVLVQPSQSLSITCTVSGFSLTSYSVHWVRQSPGKGLEWLGVIWSDGGTDYSAAFISRLSISKDNSKSQVFFKMNSLQADDTAIYYCARNDDGGDYAMDYWGQGTTVTVSS
VL: B5 VL with D1E, S9A, G30S, V79A, D93N, F95L, S99A
B7: TNFR2 antibody #224 (antibody, V domains shown)
VH: EVQLQESGPEIVKPGASVKLSCTASGFNNKDIYMHWVKQRPEQGLEWIGRIDPATGNTKHDPKFQDKATLSSDTSSNTAYLQFSSLTSEDTAVYYCAHSPYGDFGAMDYWGQGTTVTVSS
VL: DIQMTQSPAIMSASLGERVTMTCTASSSVSSNYLHWYQQKPGSSPKLWIYSTSNLPSGVPARFSGSGSGTSYSLTISSMEAEDAATYYCHQYHRSPWTFGGGTKLEIK

Legend:
[1] = biological target: T1, cynomolgus TNFR2 (Sino 90102-C08H); assay: SPR Biacore, antibody on Protein A chip, TNFR2 analyte
Procedure: In this experiment, Protein A chip was used, and the time required for the chip to capture the diluted antibody was determined by manual run, so that the Rmax of the saturated binding antigen was 50 RU. Human TNFR2 (Sino 10417-H08H) and cynomolgus TNFR2 (Sino 90102-C08H) were diluted to 32, 16, 8, 4, 2 nM. The affinity of antibody and antigen was measured by multi-cycle kinetics. In each cycle, anti-TNFR2 antibodies were injected prior to the injection of gradient concentrations of TNFR2 protein allowing the occurrence of antibody-antigen association and dissociation. After each cycle, the Protein A chip was regenerated with Glycine pH1.5 (to remove the protein on the chip). BIAcore T200 analysis software was used to calculate the affinity KD of antibody binding to antigen.

[2] = biological target: T2, human TNFR2 on the cell surface …; assay: flow cytometry, blocking of TNFα-biotin on CHO-TNFR2 cells
Procedure: CHO cells that stably overexpressed human TNFR2 were used for experiments. The cells were resuscitated and passaged until in good state, and the expression level of human TNFR2 on the cells was assessed by FACS. Compared to the isotype control, the assay could be carried out when the fold change of mean fluorescence intensity (MFI) was more than 100 times.
CHO-TNFR2 cells were digested, washed twice with DPBS and stained with Live/Dead (L/D) at room temperature for 20 min, and then seeded at 1×10⁵ cells/50 μl/well. […] The diluted antibodies were added 50 μl/well into wells pre-seeded with cells, and gently blown and mixed to make the final concentrations of the antibodies to 20, 6.67, 2.22, 0.74, 0.247, 0.08, 0.027 and 0 nM, respectively followed by incubation at 4° C. for 30 min. […] After washing twice with the staining buffer, 100 μl/well of PE-streptavidin was added and incubated at 4° C. for 30 min. After additional washing with the staining buffer twice, 150 μl resuspended cells was analyzed using an flow cytometry. Taking the logarithmic value of the antibody concentrations as abscissa and the corresponding MFI value as ordinate, the inhibition curve of the antibody was drawn, and the IC50 value was calculated by four parameters fitting.

[3] = biological target: T2, human TNFR2 on the cell surface …; assay: as above; remark: listed apart in the source
[4] = biological target: T2, human TNFR2 on the cell surface …; assay: cell-based or functional assay
[5] = biological target: T3, human TNFR2 (Novoprotein, Catalog No. …); assay: blocking ELISA, TNFα-biotin on coated human TNFR2, antibody 2 nM
Procedure: A microplate was pre-coated with 100 μl/well of 1 μg/ml human TNFR2 (Novoprotein, Catalog No. C830). […] After washing the plate, a Streptavidin-HRP working solution (1:10000 dilution) was added at 100 μl/well, and incubated with shaking at room temperature for 40 min. The plate was washed again, the HRP substrate TMB was added for color development, the termination solution was added to terminate the reaction, and the microplate reader was used to read the absorption value.

[6] = biological target: T2, human TNFR2 on the cell surface …; assay: cell-based or functional assay; remark: listed apart in the source
[7] = biological target: T4, Human TNFR2 recombinant protein (Sino …); assay: ELISA, coated antigen 0.5 ug/ml, antibody 28 ng/ml
Procedure: (§1) An microplate was pre-coated with 100 μl/well of 0.5 μg/ml human TNFR2 or cynomolgus TNFR2 (the same antigen protein as in Example 4). […] A mouse anti-human IgG Fc-HRP working solution (1:10000 dilution) was added to the plate at 100 μl/well after plate washing, and incubated with shaking at room temperature for 1.0 h. The plate was washed again, a HRP substrate TMB was added for color development prior to the termination of the reaction by adding termination solution. An microplate reader was used to read the absorption value.

[8] = biological target: T1, cynomolgus TNFR2 (Sino 90102-C08H); assay: ELISA, coated antigen 0.5 ug/ml, antibody 28 ng/ml
Procedure: as §1

Row | Binder | Kd [1] [nM] | koff [1] [s⁻¹] | kon [1] [M⁻¹ s⁻¹] | IC50 [2] [µg/mL] | Antibody AUC [3] | % AUC versus positive control (#52), ADCC against Treg [4] [%] | ELISA OD of antibodies to be tested (2 nM) [5] [OD] | proliferation inhibition (TNFα-induced Treg cell proliferation, against anti-Hel) [6] [%] | ELISA OD [7] [OD] | ELISA OD [8] [OD]
1 | B1 | 0.151 | 0.000155 | 1.02e+06 | 0.109 | 37000 | 69.6 | 0.599 | 5.2 | 3.32 | 3.25
2 | B2 | 0.279 | 0.000185 | 662000 | 0.14 | 34300 | 80.8 | 0.805 | 17.1 | 2.81 | 2.64
3 | B3 | 0.286 | 0.000172 | 601000 | 0.185 | 24300 | 45.3 | 2.34 | 6.9 |  | 
4 | B4 | 2.48 | 0.00212 | 854000 | 0.116 | 27800 | 56 | 2.14 |  |  | 
5 | B5 | 0.943 | 0.00243 | 2.57e+06 | 0.056 | 10700 | 61.4 | 1.78 |  | 3.12 | 3.12
6 | B6 | 0.0977 | 0.000276 | 2.83e+06 | 0.021 | 14900 | 59.3 | 1.14 |  | 3.17 | 3.15
7 | B7 | 0.273 | 0.000116 | 425000 | 0.128 | 40000 | 48.1 | 1.44 |  | 2.23 | 2.66
